Laboratory results taken from doi:10.1101/2025.04.02.646830 (bioRxiv, 2025).
* marks the point of attachment. 6xHis = N-terminal hexahistidine tag, N[C@@H](Cc1c[nH]cn1)C(=O)N[C@@H](Cc1c[nH]cn1)C(=O)N[C@@H](Cc1c[nH]cn1)C(=O)N[C@@H](Cc1c[nH]cn1)C(=O)N[C@@H](Cc1c[nH]cn1)C(=O)N[C@@H](Cc1c[nH]cn1)C(=O)*

T1: FtsA (E. coli, UniProt P0ABH0 1-420)
T1 sequence (looked up): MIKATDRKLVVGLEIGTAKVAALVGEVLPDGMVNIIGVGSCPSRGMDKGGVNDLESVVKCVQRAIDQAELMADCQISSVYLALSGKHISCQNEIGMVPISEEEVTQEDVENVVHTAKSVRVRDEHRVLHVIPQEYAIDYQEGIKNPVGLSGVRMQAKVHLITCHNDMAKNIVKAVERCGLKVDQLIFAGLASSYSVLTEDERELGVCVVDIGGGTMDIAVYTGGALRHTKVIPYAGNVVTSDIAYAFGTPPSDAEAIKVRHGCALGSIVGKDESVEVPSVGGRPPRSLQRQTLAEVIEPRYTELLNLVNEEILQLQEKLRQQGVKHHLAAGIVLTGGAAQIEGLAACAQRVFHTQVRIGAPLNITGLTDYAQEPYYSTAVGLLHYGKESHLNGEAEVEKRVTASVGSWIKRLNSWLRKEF

B1: Alexa Fluor 488-labeled FtsZ (natural protein, E. coli, UniProt P0A9A6 1-383, looked up)
chain: MFEPMELTNDAVIKVIGVGGGGGNAVEHMVRERIEGVEFFAVNTDAQALRKTAVGQTIQIGSGITKGLGAGANPEVGRNAADEDRDALRAALEGADMVFIAAGMGGGTGTGAAPVVAEVAKDLGILTVAVVTKPFNFEGKKRMAFAEQGITELSKHVDSLITIPNDKLLKVLGRGISLLDAFGAANDVLKGAVQGIAELITRPGLMNVDFADVRTVMSEMGYAMMGSGVASGEDRAEEAAEMAISSPLLEDIDLSGARGVLVNITAGFDLRLDEFETVGNTIRAFASDNATVVIGTSLDPDMNDELRVTVVATGIGMDKRPEITLVTNKQVQQPVMDRYQQHGMAPLTQEQKPVAKVVNDNAPQTAKEPDYLDIPAFLRKQAD
modifications: Alexa Fluor 488 label (site not stated)
B2: ^N-pepPBP1b (residues 1-64) peptide, N-terminal 6x-His tag, C-terminal cysteine, labelled with cyanine 5 (peptide)
peptide: 6xHis-MAGNDREPIGRKGKPTRPVKQKVSRRRYEDDDDYDDYDDYEDEEPMPRKGKGKGKGRKPRGKRGC(sulfo‑cyanine5‑maleimide)

Molecular target: T1, FtsA
Assay: TIRF microscopy of FtsZ membrane recruitment on supported lipid bilayers

Row | Binder | binding result
1 | B1 | binds
2 | B2 | binds
